Results on five molecules are retold here after publication doi:10.1101/595835, “An oligomeric state-dependent switch in FICD regulates AMPylation and deAMPylation of the chaperone BiP” (bioRxiv, 2019).

Data set [1] addresses T1, biotinylated AviTag-haBiP(28-635)^T229A-V461F (Chinese hamster, UniProt G3I8R9 28-635, T229A | V461F, biotin on the AviTag).
T1 construct: Chinese hamster BiP (haBiP), aa 28-635; the assay tells the nucleotide state; also called BiP^T229A-V461F:Apo; BiP:ATP; not shown: GST, N-terminal, cleaved; AviTag, N-terminal, kept
Kind of data set: BLI; biotinylated BiP^T229A-V461F(28-635) immobilised on streptavidin biosensors and pre-saturated with ATP (2 mM); FICD His363Ala variants at 250 nM, without or with nucleotide (ATP 8 mM, ADP 2 mM); HKM plus 0.05% Triton X-100, 30 °C. The following applies: both partners purified. A general note: Biolayer interferometry detects binding as a change in optical thickness at a sensor tip.

The target in data set [2] is T2, biotinylated AviTag-FICD(104-458)^H363A (human, UniProt Q9BVA6 104-458, H363A, biotin on the AviTag).
T2 construct: human FICD (HYPE), aa 104-458; Expression, purification and biotinylation of this construct are not described; also called N-terminally biotinylated FICD^H363A; UK 2422; not shown: AviTag, N-terminal, kept
T2 sequence (looked up): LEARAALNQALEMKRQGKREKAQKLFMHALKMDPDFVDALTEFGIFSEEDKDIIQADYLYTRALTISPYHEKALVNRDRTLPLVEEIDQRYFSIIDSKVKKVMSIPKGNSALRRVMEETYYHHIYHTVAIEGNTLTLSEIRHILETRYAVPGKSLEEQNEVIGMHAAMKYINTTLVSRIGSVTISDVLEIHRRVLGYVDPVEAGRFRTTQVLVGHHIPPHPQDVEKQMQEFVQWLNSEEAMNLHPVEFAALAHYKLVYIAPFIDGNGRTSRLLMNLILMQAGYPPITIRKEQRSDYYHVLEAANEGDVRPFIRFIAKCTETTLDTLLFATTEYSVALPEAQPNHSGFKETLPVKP
Briefly: BLI; dimer dissociation: biotinylated AviTag-FICD(104-458)^H363A (3 nM) pre-incubated with FICD^H363A (300 nM), loaded on streptavidin biosensors; dissociation by infinite dilution into HKTx buffer ± nucleotide at 5 mM, 30 °C; mono-exponential fit. The following applies: both partners purified.

The target in data set [3] is T3, biotinylated AviTag-haBiP^V461F(19-654), AMPylated (Chinese hamster, UniProt G3I8R9 19-654, V461F, AMP on Thr518 (AMPylation); biotin on the AviTag).
T3 construct: Chinese hamster BiP (haBiP), aa 19-654; also called BiP-AMP; AMPylated BiP; not shown: GST, N-terminal, cleaved; AviTag, N-terminal, kept
T3 sequence (G3I8R9 19-654 V461F): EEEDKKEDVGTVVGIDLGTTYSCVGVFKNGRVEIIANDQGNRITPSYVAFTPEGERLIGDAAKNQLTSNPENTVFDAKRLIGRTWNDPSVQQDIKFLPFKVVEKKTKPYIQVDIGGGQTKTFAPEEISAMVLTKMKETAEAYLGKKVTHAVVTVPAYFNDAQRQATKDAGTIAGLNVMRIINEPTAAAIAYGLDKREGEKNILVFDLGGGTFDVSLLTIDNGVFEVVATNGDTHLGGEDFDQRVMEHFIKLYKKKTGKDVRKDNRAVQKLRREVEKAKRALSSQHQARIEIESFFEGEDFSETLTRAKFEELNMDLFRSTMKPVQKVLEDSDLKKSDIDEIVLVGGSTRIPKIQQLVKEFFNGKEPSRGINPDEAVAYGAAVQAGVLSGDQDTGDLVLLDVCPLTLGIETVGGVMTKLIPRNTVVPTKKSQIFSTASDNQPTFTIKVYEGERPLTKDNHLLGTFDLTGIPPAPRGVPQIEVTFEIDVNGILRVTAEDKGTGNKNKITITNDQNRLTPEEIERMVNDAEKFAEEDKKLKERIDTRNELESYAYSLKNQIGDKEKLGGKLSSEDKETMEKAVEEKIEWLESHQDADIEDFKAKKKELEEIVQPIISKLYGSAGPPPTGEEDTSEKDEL
Briefly: BLI; biotinylated AMPylated or unmodified BiP immobilised on streptavidin biosensors; FICD His363Ala variants in solution at 250 nM; HKM plus 0.05% Triton X-100, 30 °C (Figure S2G). To be noted: both partners purified.

Data set [4] deals with the molecule itself. Briefly: SEC; analytical SEC, SEC-3 HPLC column, HKMC buffer (50 mM HEPES-KOH pH 7.4, 150 mM KCl, 10 mM MgCl2, 1 mM CaCl2), 25 °C; FICD at 20 µM, or 0.2-50 µM after 16 h at 25 °C (Figure S1D-E); approximate Kd of dimer to monomers from elution peak times.
Data set [5] deals with the molecule itself. Kind of data set: crystal structure; sitting drop vapour diffusion, FICD at 9 mg/ml in 10 mM Tris-HCl pH 8.0, 150 mM NaCl, 1 mM TCEP, ± 10 mM MgATP.

T1 sequence (G3I8R9 28-635 T229A/V461F): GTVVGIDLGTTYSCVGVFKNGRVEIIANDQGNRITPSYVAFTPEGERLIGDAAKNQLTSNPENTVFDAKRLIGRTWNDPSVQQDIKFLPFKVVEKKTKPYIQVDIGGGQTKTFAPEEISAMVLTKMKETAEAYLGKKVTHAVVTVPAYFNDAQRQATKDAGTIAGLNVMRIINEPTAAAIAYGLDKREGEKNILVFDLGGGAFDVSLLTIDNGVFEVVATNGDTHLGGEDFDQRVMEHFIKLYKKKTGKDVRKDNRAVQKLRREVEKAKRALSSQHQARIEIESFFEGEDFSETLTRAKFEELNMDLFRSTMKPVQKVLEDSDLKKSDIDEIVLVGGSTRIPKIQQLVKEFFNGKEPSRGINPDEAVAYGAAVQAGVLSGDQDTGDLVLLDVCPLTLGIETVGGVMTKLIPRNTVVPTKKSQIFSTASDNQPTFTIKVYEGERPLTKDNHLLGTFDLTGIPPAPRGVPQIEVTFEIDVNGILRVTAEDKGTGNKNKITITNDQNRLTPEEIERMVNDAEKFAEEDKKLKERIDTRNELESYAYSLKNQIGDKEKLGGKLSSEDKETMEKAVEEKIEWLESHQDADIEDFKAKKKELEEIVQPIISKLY

B1: FICD^H363A (aa 104-445) (domain or fragment, human, UniProt Q9BVA6 104-445, looked up)
chain: LEARAALNQALEMKRQGKREKAQKLFMHALKMDPDFVDALTEFGIFSEEDKDIIQADYLYTRALTISPYHEKALVNRDRTLPLVEEIDQRYFSIIDSKVKKVMSIPKGNSALRRVMEETYYHHIYHTVAIEGNTLTLSEIRHILETRYAVPGKSLEEQNEVIGMHAAMKYINTTLVSRIGSVTISDVLEIHRRVLGYVDPVEAGRFRTTQVLVGHHIPPHPQDVEKQMQEFVQWLNSEEAMNLHPVEFAALAHYKLVYIAPFIDGNGRTSRLLMNLILMQAGYPPITIRKEQRSDYYHVLEAANEGDVRPFIRFIAKCTETTLDTLLFATTEYSVALPEAQP
notes: human FICD (HYPE), aa 104-445; also called dFICD^H363A; source: E. coli T7 Express lysY/I^q, purified (Ni-NTA, on-column Ulp1 cleavage, anion exchange, SEC); not shown: His6, N-terminal, cleaved; Smt3, N-terminal, cleaved
B1: the binding result in data set [1] and in data set [3] was “binds” in each case. Further, the “fold increase in the dimer off rate with ATP (5 mM) against no nucleotide” value in data set [2] is 3 fold.

B2: FICD^G299S (aa 104-445) (domain or fragment, human, UniProt Q9BVA6 104-445, looked up)
chain: LEARAALNQALEMKRQGKREKAQKLFMHALKMDPDFVDALTEFGIFSEEDKDIIQADYLYTRALTISPYHEKALVNRDRTLPLVEEIDQRYFSIIDSKVKKVMSIPKGNSALRRVMEETYYHHIYHTVAIEGNTLTLSEIRHILETRYAVPGKSLEEQNEVIGMHAAMKYINTTLVSRIGSVTISDVLEIHRRVLSYVDPVEAGRFRTTQVLVGHHIPPHPQDVEKQMQEFVQWLNSEEAMNLHPVEFAALAHYKLVYIHPFIDGNGRTSRLLMNLILMQAGYPPITIRKEQRSDYYHVLEAANEGDVRPFIRFIAKCTETTLDTLLFATTEYSVALPEAQP
notes: human FICD (HYPE), aa 104-445; Partially monomeric; also called Gly299Ser; source: E. coli T7 Express lysY/I^q, purified (Ni-NTA, on-column Ulp1 cleavage, anion exchange, SEC); not shown: His6, N-terminal, cleaved; Smt3, N-terminal, cleaved
As usually defined, the Kd is the free concentration of one partner at which half of the binding sites on the other are occupied at equilibrium, for simple one-to-one binding. In the case of B2, the Kd in data set [4] came to 9.5 µM.

B3: FICD^K256A (aa 104-445) (domain or fragment, human, UniProt Q9BVA6 104-445, looked up)
chain: LEARAALNQALEMKRQGKREKAQKLFMHALKMDPDFVDALTEFGIFSEEDKDIIQADYLYTRALTISPYHEKALVNRDRTLPLVEEIDQRYFSIIDSKVKKVMSIPKGNSALRRVMEETYYHHIYHTVAIEGNTLTLSEIRHILETRYAVPGASLEEQNEVIGMHAAMKYINTTLVSRIGSVTISDVLEIHRRVLGYVDPVEAGRFRTTQVLVGHHIPPHPQDVEKQMQEFVQWLNSEEAMNLHPVEFAALAHYKLVYIHPFIDGNGRTSRLLMNLILMQAGYPPITIRKEQRSDYYHVLEAANEGDVRPFIRFIAKCTETTLDTLLFATTEYSVALPEAQP
notes: human FICD (HYPE), aa 104-445; also called dimeric dimer relay mutant FICD^K256A; source: E. coli T7 Express lysY/I^q, purified (Ni-NTA, on-column Ulp1 cleavage, anion exchange, SEC); not shown: His6, N-terminal, cleaved; Smt3, N-terminal, cleaved
Take B3: the binding result in data set [5] is on record as “binds”.

B4: FICD^K256S (aa 104-445) (domain or fragment, human, UniProt Q9BVA6 104-445, looked up)
chain: LEARAALNQALEMKRQGKREKAQKLFMHALKMDPDFVDALTEFGIFSEEDKDIIQADYLYTRALTISPYHEKALVNRDRTLPLVEEIDQRYFSIIDSKVKKVMSIPKGNSALRRVMEETYYHHIYHTVAIEGNTLTLSEIRHILETRYAVPGSSLEEQNEVIGMHAAMKYINTTLVSRIGSVTISDVLEIHRRVLGYVDPVEAGRFRTTQVLVGHHIPPHPQDVEKQMQEFVQWLNSEEAMNLHPVEFAALAHYKLVYIHPFIDGNGRTSRLLMNLILMQAGYPPITIRKEQRSDYYHVLEAANEGDVRPFIRFIAKCTETTLDTLLFATTEYSVALPEAQP
notes: human FICD (HYPE), aa 104-445; also called Lys256Ser; dimer relay mutant; source: E. coli T7 Express lysY/I^q, purified (Ni-NTA, on-column Ulp1 cleavage, anion exchange, SEC); not shown: His6, N-terminal, cleaved; Smt3, N-terminal, cleaved
In the case of B4, the Kd in data set [4] was below 0.4 µM.

B5: wild-type FICD (aa 104-445) (domain or fragment, human, UniProt Q9BVA6 104-445, looked up)
chain: LEARAALNQALEMKRQGKREKAQKLFMHALKMDPDFVDALTEFGIFSEEDKDIIQADYLYTRALTISPYHEKALVNRDRTLPLVEEIDQRYFSIIDSKVKKVMSIPKGNSALRRVMEETYYHHIYHTVAIEGNTLTLSEIRHILETRYAVPGKSLEEQNEVIGMHAAMKYINTTLVSRIGSVTISDVLEIHRRVLGYVDPVEAGRFRTTQVLVGHHIPPHPQDVEKQMQEFVQWLNSEEAMNLHPVEFAALAHYKLVYIHPFIDGNGRTSRLLMNLILMQAGYPPITIRKEQRSDYYHVLEAANEGDVRPFIRFIAKCTETTLDTLLFATTEYSVALPEAQP
notes: human FICD (HYPE), aa 104-445; Dimer by SEC, AUC and crystal structure; also called HYPE; dFICD; source: E. coli T7 Express lysY/I^q, purified (Ni-NTA, on-column Ulp1 cleavage, anion exchange, SEC); not shown: His6, N-terminal, cleaved; Smt3, N-terminal, cleaved
In the case of B5, the binding result in data set [4] was “binds”.
